{"source": "patent US20250152663A1", "about": "“COMPOSITION FOR PREVENTION OR TREATMENT OF DRY EYE DISEASE COMPRISING HAPLN1” (HAPLNSCIENCE INC., priority 2021, published 2025)", "molecules": {"B1": {"name": "hyaluronan and proteoglycan link protein 1 (HAPLN1) (protein, listed as Homo sapiens)", "chain": "MKSLLLLVLISICWADHLSDNYTLDHDRAIHIQAENGPHLLVEAEQAKVFSHRGGNVTLPCKFYRDPTAFGSGIHKIRIKWTKLTSDYLKEVDVFVSMGYHKKTYGGYQGRVFLKGGSDSDASLVITDLTLEDYGRYKCEVIEGLEDDTVVVALDLQGVVFPYFPRLGRYNLNFHEAQQACLDQDAVIASFDQLYDAWRGGLDWCNAGWLSDGSVQYPITKPREPCGGQNTVPGVRNYGFWDKDKSRYDVFCFTSNFNGRFYYLIHPTKLTYDEAVQACLNDGAQIAKVGQIFAAWKILGYDRCDAGWLADGSVRYPISRPRRRCSPTEAAVRFVGFPDKKHKLYGVYCFRAYN"}}, "key": {"[1]": {"tested_on": "MUC4 mRNA in human corneal epithelial cells", "assay": "RT-qPCR of mucin mRNA (MUC4) under high osmotic pressure", "format": "cell-based", "conditions": "HCEC, 450 mOsM, 10 to 200 ng/ml, particularly 50 to 200 ng/ml, 24 hours; compared to the untreated group", "procedure": "First, the human corneal epithelial cells (HCECs, 5th passage) were seeded onto 6 wells at a density of […]. After 24 hours, the HCECs were pre-treated with a medium with different osmotic pressures (314 and 450 mOsM). After 48 hours of incubation, the cells were treated with the composition of the present disclosure having different concentrations of rhHAPLN1 (0, 5, 10, 20, 50, 100, and 200 ng/ml) and Cyclosporine A (0.1 μM), as a control drug, for 24 hours. Then, the cells were washed and sampled to perform RT-qPCR (FIG. 5A).\nTotal mRNA was purified from the HCECs by using a Qiagen kit. A cDNA was synthesized by using the iScript cDNA synthesis kit. Subsequently, RT-qPCR was performed and result data was expressed as relative expression levels (fold) (FIGS. 5B to 5C)."}, "[2]": {"tested_on": "inflammatory factors (Interleukins, CCL/CXCL family, Chitinase 3-like 1) in human corneal epithelial cells", "assay": "Human XL cytokine array of culture broth under high osmotic pressure", "format": "cell-based", "conditions": "HCEC, 450 mOsM, 24 hours", "procedure": "As one of the effects the HAPLN1 protein-containing composition of the present disclosure on the relief of dry eye disease, an effect on the relief of inflammation was verified by using Human XL cytokine array (R&D Systems. ARY022B) based on expression levels of inflammatory factors (Interleukins, CCL/CXCL family, and […]).\nFirst, the human corneal epithelial cells after 4th passage were seeded onto 6 wells and incubated for 24 hours under low osmotic pressure conditions (314 mOsM). Subsequently, the cells were incubated under high osmotic pressure conditions (450 mOsM) for 48 hours and treated with different concentrations (i.e., 10 μg/ml HAPLN 1 μl to 1 ml media->working concentration of 10 ng/ml) of the composition according to the present disclosure. Then, the cells were further incubated for 24 hours, and the culture broth was recovered therefrom, followed by an assay on the expression level of each marker by using Human XL cytokine array (R&D Systems. ARY022B). According to each of the graphs of FIG. 3B illustrating relative expression levels of the markers of the inflammatory factors in the different concentrations of the HAPLN1 protein, it was confirmed that secretion of inflammatory factors such as IL-6, IL-17A, CCL20, CXCL10, CCL5, CD54, and CD176 increased under the high osmotic pressure conditions (450 mOsM)."}, "goblet cells": {"tested_on": "goblet cells", "assay": "Goblet cells (PAS staining), rabbit dry eye model", "format": "in vivo, New Zealand white rabbits", "procedure": "Eyes of the rabbits including conjunctiva were enucleated, fixed with a specific fixing solution to be embedded into paraffin, and microsectioned, followed by staining and analysis according to the purpose. In this regard, the eyeballs were stained by hematoxylin & eosin (H & E) staining and detachment of corneal epithelial tissue was analyzed. After PAS staining, distribution of goblet cells in the conjunctiva was measured. In addition, after conjunctiva epithelium indentation (impression cytology), PAS staining was performed and distribution of goblet cells was measured.\nAfter 15 days of eye examination, on the 1st day after 16 days of drug treatment, eyes were enucleated, subjected to histopathological analysis, and paraffin blocked. Tissue was stained in a section slide by PAS staining (FIG. 17A). The number of goblet cells in a range of 200 μm^2 was measured and quantified (FIG. 17b)."}, "rabbit dry eye model": {"tested_on": "rabbit dry eye model", "assay": "Tear film break up time (TFBUT), benzalkonium chloride-induced dry eye disease model", "format": "in vivo, New Zealand white rabbits", "procedure": "One drop (0.05 ml) of 0.1% benzalkonium chloride (BAC) was administered to both eyes of rabbits twice a day (9:00 and 17:00) for 14 days, and then induction of dry eye was identified by examination of eyes, and the rabbits were classified into groups.\nThe test substance was dropped into the groups of the rabbit model twice a day (8:30 and 16:30) (Day 15 to 30 (total of 16 days)).\nAnesthesia was induced by intramuscular injection of Xylazine and Ketamine, and then one drop of Alcaine Eye Drop was administered and tear and the eye drop remaining therein were removed by using Weck-cel cellulose spear. After putting STT paper on the lower eyelid, a length of a wet region for 5 minutes was measured (STT-2). In addition, stability of the tear film was tested by measuring tear film break up time (TFBUT, measurement of time taken for the tear film to break down). Furthermore, conditions of the cornea and fluorescent staining were identified by a slit test.\nIn this example, a method of measuring time until black spots appeared at fluorescent stained regions after applying one drop of sodium fluorescein to eyeballs. The black spots may appear within several seconds after blinking and occurs very quickly under the conditions of dry eye disease. That is, stability of the tear film was measured by measuring the tear film break up time (TFBUT, measurement of time taken for the tear film to break down)."}}, "data": [{"molecule": "B1", "values": [{"measurement": "expression level of MUC4 (FIG. 5B)", "setting": "[1]", "result": "significantly increased"}, {"measurement": "expression levels of the inflammatory factors, compared with untreated groups", "setting": "[2]; 10 to 100 ng/ml", "result": "lower than that of untreated groups"}, {"measurement": "expression levels of IL-17A, Fas ligand/CD178, FGF-7, FGF-19, Angiogenin, RBP-4, and Chitinase 3-like 1", "setting": "[2]", "result": "reduced to the levels of normal cells"}, {"measurement": "expression levels of various inflammatory factors, relative to normal group (1.0)", "setting": "[2]", "result": "decreased to the level of the normal group or less"}, {"measurement": "number of goblet cells compared to the dry eye disease model", "setting": "goblet cells; after 16 days of drug treatment, in proportion to the concentration", "result": "significantly increased"}, {"measurement": "number of goblet cells compared to Restasis", "setting": "goblet cells; high concentration (50 μg/ml)", "result": "far more increased"}, {"measurement": "increase of TFBUT compared with Restasis", "setting": "rabbit dry eye model; after 10 days, regardless of the concentration of HAPLN1", "result": "more than by Restasis"}, {"measurement": "tear film break up time (TFBUT)", "setting": "rabbit dry eye model; eye drop b.i.d., dry eye model less than 10 seconds", "result": "continuously increased"}, {"measurement": "tear film break up time (TFBUT)", "setting": "rabbit dry eye model; high concentration (50 μg/ml)", "result": "≥ 30", "unit": "s"}]}]}
